# Assay results from patent US20240287154A1, “MC3R AGONIST PEPTIDES” (The Regents of the University of Michigan, priority 2021, published 2024).
# Non-standard residues stand in square brackets, D forms with d. Phe(4-I) = N[C@@H](Cc1ccc(I)cc1)C(=O)O; Nle = CCCC[C@H](N)C(=O)O; dAbu = CC[C@@H](N)C(=O)O; Aib = CC(C)(N)C(=O)O
# B1: CTX-1538 (peptide)
# peptide: Ac-[Nle][dA]HFR[dW]DRFV-OH
# SMILES: CCCC[C@H](NC(C)=O)C(=O)N[C@H](C)C(=O)N[C@@H](Cc1c[nH]cn1)C(=O)N[C@@H](Cc1ccccc1)C(=O)N[C@@H](CCCNC(=N)N)C(=O)N[C@H](Cc1c[nH]c2ccccc12)C(=O)N[C@@H](CC(=O)O)C(=O)N[C@@H](CCCNC(=N)N)C(=O)N[C@@H](Cc1ccccc1)C(=O)N[C@H](C(=O)O)C(C)C
# B2: CTX-1533 (peptide)
# peptide: Ac-[Nle][dA]HFR[dW]KRFG-OH
# SMILES: CCCC[C@H](NC(C)=O)C(=O)N[C@H](C)C(=O)N[C@@H](Cc1c[nH]cn1)C(=O)N[C@@H](Cc1ccccc1)C(=O)N[C@@H](CCCNC(=N)N)C(=O)N[C@H](Cc1c[nH]c2ccccc12)C(=O)N[C@@H](CCCCN)C(=O)N[C@@H](CCCNC(=N)N)C(=O)N[C@@H](Cc1ccccc1)C(=O)NCC(=O)O
# B3: CTX-1541 (peptide)
# peptide: Ac-[Nle][dA]HFR[dW]F-NH2
# SMILES: CCCC[C@H](NC(C)=O)C(=O)N[C@H](C)C(=O)N[C@@H](Cc1c[nH]cn1)C(=O)N[C@@H](Cc1ccccc1)C(=O)N[C@@H](CCCNC(=N)N)C(=O)N[C@H](Cc1c[nH]c2ccccc12)C(=O)N[C@@H](Cc1ccccc1)C(N)=O
# B4: CTX-1543 (peptide)
# peptide: Ac-[Nle][dA]H[Phe(4-I)]R[dW]G-NH2
# SMILES: CCCC[C@H](NC(C)=O)C(=O)N[C@H](C)C(=O)N[C@@H](Cc1c[nH]cn1)C(=O)N[C@@H](Cc1ccc(I)cc1)C(=O)N[C@@H](CCCNC(=N)N)C(=O)N[C@H](Cc1c[nH]c2ccccc12)C(=O)NCC(N)=O
# B5: CTX-1534 (peptide)
# peptide: Ac-[Nle][dA]HFR[dW]DAFG-OH
# SMILES: CCCC[C@H](NC(C)=O)C(=O)N[C@H](C)C(=O)N[C@@H](Cc1c[nH]cn1)C(=O)N[C@@H](Cc1ccccc1)C(=O)N[C@@H](CCCNC(=N)N)C(=O)N[C@H](Cc1c[nH]c2ccccc12)C(=O)N[C@@H](CC(=O)O)C(=O)N[C@@H](C)C(=O)N[C@@H](Cc1ccccc1)C(=O)NCC(=O)O
# B6: CTX-1536 (peptide)
# peptide: Ac-[Nle][dA]HFR[dW]DRPG-OH
# SMILES: CCCC[C@H](NC(C)=O)C(=O)N[C@H](C)C(=O)N[C@@H](Cc1c[nH]cn1)C(=O)N[C@@H](Cc1ccccc1)C(=O)N[C@@H](CCCNC(=N)N)C(=O)N[C@H](Cc1c[nH]c2ccccc12)C(=O)N[C@@H](CC(=O)O)C(=O)N[C@@H](CCCNC(=N)N)C(=O)N1CCC[C@H]1C(=O)NCC(=O)O
# B7: CTX-1131 (peptide)
# peptide: H-YV[Nle][dAbu]HFR[dW]D-NH2
# SMILES: CCCC[C@H](NC(=O)[C@@H](NC(=O)[C@@H](N)Cc1ccc(O)cc1)C(C)C)C(=O)N[C@H](CC)C(=O)N[C@@H](Cc1c[nH]cn1)C(=O)N[C@@H](Cc1ccccc1)C(=O)N[C@@H](CCCNC(=N)N)C(=O)N[C@H](Cc1c[nH]c2ccccc12)C(=O)N[C@@H](CC(=O)O)C(N)=O
# B8: CTX-1540 (peptide)
# peptide: Ac-[Nle][dA]HFR[dW]G-NH2
# SMILES: CCCC[C@H](NC(C)=O)C(=O)N[C@H](C)C(=O)N[C@@H](Cc1c[nH]cn1)C(=O)N[C@@H](Cc1ccccc1)C(=O)N[C@@H](CCCNC(=N)N)C(=O)N[C@H](Cc1c[nH]c2ccccc12)C(=O)NCC(N)=O
# B9: CTX-1532 (peptide)
# peptide: Ac-[Nle][dA]HFR[dW][Nle]RFG-OH
# SMILES: CCCC[C@H](NC(C)=O)C(=O)N[C@H](C)C(=O)N[C@@H](Cc1c[nH]cn1)C(=O)N[C@@H](Cc1ccccc1)C(=O)N[C@@H](CCCNC(=N)N)C(=O)N[C@H](Cc1c[nH]c2ccccc12)C(=O)N[C@@H](CCCC)C(=O)N[C@@H](CCCNC(=N)N)C(=O)N[C@@H](Cc1ccccc1)C(=O)NCC(=O)O
# B10: CTX-1531 (peptide)
# peptide: Ac-[Nle][dA]HFR[dW][dF]RFG-OH
# SMILES: CCCC[C@H](NC(C)=O)C(=O)N[C@H](C)C(=O)N[C@@H](Cc1c[nH]cn1)C(=O)N[C@@H](Cc1ccccc1)C(=O)N[C@@H](CCCNC(=N)N)C(=O)N[C@H](Cc1c[nH]c2ccccc12)C(=O)N[C@H](Cc1ccccc1)C(=O)N[C@@H](CCCNC(=N)N)C(=O)N[C@@H](Cc1ccccc1)C(=O)NCC(=O)O
# B11: CTX-1542 (peptide)
# peptide: Ac-[Nle][dA]HFR[dW][dF]-NH2
# SMILES: CCCC[C@H](NC(C)=O)C(=O)N[C@H](C)C(=O)N[C@@H](Cc1c[nH]cn1)C(=O)N[C@@H](Cc1ccccc1)C(=O)N[C@@H](CCCNC(=N)N)C(=O)N[C@H](Cc1c[nH]c2ccccc12)C(=O)N[C@H](Cc1ccccc1)C(N)=O
# B12: CTX-1535 (peptide)
# peptide: Ac-[Nle][dA]HFR[dW]DKFG-OH
# SMILES: CCCC[C@H](NC(C)=O)C(=O)N[C@H](C)C(=O)N[C@@H](Cc1c[nH]cn1)C(=O)N[C@@H](Cc1ccccc1)C(=O)N[C@@H](CCCNC(=N)N)C(=O)N[C@H](Cc1c[nH]c2ccccc12)C(=O)N[C@@H](CC(=O)O)C(=O)N[C@@H](CCCCN)C(=O)N[C@@H](Cc1ccccc1)C(=O)NCC(=O)O
# B13: CTX-1545 (peptide)
# peptide: Ac-[Nle][Aib]H[Phe(4-I)]R[dW]G-NH2
# SMILES: CCCC[C@H](NC(C)=O)C(=O)NC(C)(C)C(=O)N[C@@H](Cc1c[nH]cn1)C(=O)N[C@@H](Cc1ccc(I)cc1)C(=O)N[C@@H](CCCNC(=N)N)C(=O)N[C@H](Cc1c[nH]c2ccccc12)C(=O)NCC(N)=O
# B14: CTX-1537 (peptide)
# peptide: Ac-[Nle][dA]HFR[dW]DRAG-OH
# SMILES: CCCC[C@H](NC(C)=O)C(=O)N[C@H](C)C(=O)N[C@@H](Cc1c[nH]cn1)C(=O)N[C@@H](Cc1ccccc1)C(=O)N[C@@H](CCCNC(=N)N)C(=O)N[C@H](Cc1c[nH]c2ccccc12)C(=O)N[C@@H](CC(=O)O)C(=O)N[C@@H](CCCNC(=N)N)C(=O)N[C@@H](C)C(=O)NCC(=O)O
# Target: human MC3R (human, UniProt P41968 1-323)
# Test: cell-based or functional assay
# Chain of human MC3R (P41968 whole entry): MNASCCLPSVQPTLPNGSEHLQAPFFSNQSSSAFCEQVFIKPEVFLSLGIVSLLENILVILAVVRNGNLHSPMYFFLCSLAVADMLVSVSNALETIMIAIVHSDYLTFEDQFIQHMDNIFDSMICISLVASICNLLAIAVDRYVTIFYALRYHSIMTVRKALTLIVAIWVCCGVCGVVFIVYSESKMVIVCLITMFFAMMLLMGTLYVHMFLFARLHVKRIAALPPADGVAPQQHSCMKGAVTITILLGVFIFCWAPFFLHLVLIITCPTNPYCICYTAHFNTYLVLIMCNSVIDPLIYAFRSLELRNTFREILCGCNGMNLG
MC3R cAMP (EC50) [nM],MC3R selectivity (relative to MC4R),Binder
7.4,1280,B1
14.2,314,B2
65.2,9,B3
3.1,202,B4
38.8,186,B5
73,72,B6
6.6,65,B7
25.1,11,B8
1.7,51,H-VMGHFR[dW]DRFG-OH [CTX-1546]
10.3,184,B9
356,,B10
64.6,15,B11
6,1590,B12
47.1,16,Ac-[Nle][dA]HFR[dW]-NH2 [CTX-1539]
51.6,14,B13
25.5,278,B14
